These results are taken from patent publication US7183110B2, “Antibody immunoreactive with a 5-enolpyruvylshikimate-3-phosphate synthase” (Monsanto Technology LLC, priority 1990, dated 2007).

The subject of data set [1] is rabbit anti-EPSPS antibody. The data set is described as follows: Western analysis with rabbit anti-EPSPS antibody to the Petunia EPSPS protein. It is filed as binding. To be noted: crude extracts 50 μg protein; control Petunia EPSPS 20 ng; Protein A-125I development. The source says: The presence of EPSPS activity in these extracts was confirmed by enzyme assay. This surprising result, indicating a lack of similarity between the EPSPS's from these bacterial isolates and those previously studied, coupled with the combination of a low Km for PEP and a high Ki for glyphosate, illustrates that these new EPSPS enzymes are different from known EPSPS enzymes (now referred to as Class I EPSPS).

The subject of another data set is EPSPS enzymes. The data set is described as follows: Kinetic characterization of EPSPS enzymes (Km PEP, Ki glyphosate). It is filed as biochemical. Conditions: for Ki/Km: Ki glyphosate / Km PEP; for Km: Km of the EPSPS enzyme for phosphoenolpyruvate, PEP ranges tested in table footnotes. Here is the method: The EPSPS enzymes from these microorganisms were then subjected to further study and analysis.
When the change introduced into the Petunia EPSPS (GA101) was introduced into a number of other EPSPS enzymes, similar changes in kinetics were observed, an elevation of the Ki for glyphosate and of the Km for PEP.
All protein purification procedures were carried out at 3–5° C. EPSPS enzyme assays were performed using either the phosphate release or radioactive HPLC method, as previously described in Padgette et al., 1987, using 1 mM phosphoenol pyruvate (PEP, Boehringer) and 2 mM shikimate-3-phosphate (S3P) substrate concentrations. For radioactive HPLC assays, ^14C-PEP (Amersham) was utilized. S3P was synthesized as previously described in Wibbenmeyer et al. 1988. N-terminal amino acid sequencing was performed by loading samples onto a Polybrene precycled filter in aliquots while drying. Automated Edman degradation chemistry was used to determine the N-terminal protein sequence, using an Applied Biosystems Model 470A gas phase sequencer (Hunkapiller et al., 1983) with an Applied Biosystems 120A PTH analyzer.

For a further data set, the system named is LBAA EPSPS. The data set is described as follows: appKm and appKi of LBAA EPSPS wild type and G100A variant in E. coli crude lysates. It is filed as biochemical, Achromobacter sp. strain LBAA. To be noted: range of PEP: 2–40 μM. An excerpt: One difference that may be noted between the deduced amino acid sequences of the CP4 and LBAA EPSPS proteins is at position 100 where an Alanine is found in the case of the CP4 enzyme and a Glycine is found in the case of the LBAA enzyme. In the Class I EPSPS enzymes a Glycine is usually found in the equivalent position, i.e Glycine96 in E. coli and K. pneumoniae and Glycine101 in Petunia. In the case of these three enzymes it has been reported that converting that Glycine to an Alanine results in an elevation of the appKi for glyphosate and a concomitant elevation in the appKm for PEP (Kishore et al., 1986; Kishore and Shah, 1988; Sost and Amrhein, 1990), which, as discussed above, makes the enzyme less efficient especially under conditions of lower PEP concentrations. The Glycine100 of the LBAA EPSPS was converted to an Alanine and both the appKm for PEP and the appKi for glyphosate were determined for the variant. The Glycine100Alanine change was introduced by mutagenesis using the following primer:
and both the wild type and variant genes were expressed in E. coli in a RecA promoter expression vector (pMON17201 and pMON17264, respectively) and the appKm's and appKi's determined in crude lysates. […] However, in contrast to the results in the Class I G-A variants, the appKm(PEP) in the Class II (LBAA) G-A variant is unaltered. […]

Another data set deals with T1, CP4 EPSPS (Agrobacterium sp., UniProt Q9R4E4, S2A).
T1 construct: made in house; host or cells: E. coli, PRecA-gene10L vector
The data set is described as follows: EPSPS activity from native and synthetic CP4 EPSPS genes expressed in E. coli. It is filed as biochemical, Agrobacterium sp. strain CP4. An excerpt: A synthetic CP4 gene was designed to change as completely as possible those inimical sequences discussed above. In summary, the gene sequence was redesigned to eliminate as much as possible the following sequences or sequence features (while avoiding the introduction of unnecessary restriction sites): stretches of G's and C's of 5 or greater; and A+T rich regions (predominantly) that could function as polyadenylation sites or potential RNA destabilization region The sequence of this gene is shown in FIG. 8 (SEQ ID NO:9). This coding sequence was expressed in E. coli from the RecA promoter and assayed for EPSPS activity and compared with that from the native CP4 EPSPS gene. […] The N-terminus of the coding sequence was mutagenized to place an SphI site at the ATG to permit the construction of the CTP2-CP4 synthetic fusion for chloroplast import. The following primer was used to accomplish this mutagenesis:
The EPSPS gene was isolated originally from Agrobacterium sp. strain CP4 and expresses a highly tolerant enzyme. The original gene contains sequences that could be inimical to high expression of the gene in some plants. […] The high G+C % in the CP4 EPSPS gene could also result in the formation of strong hairpin structures that may affect expression or stability of the RNA. A plant preferred version of the gene was synthesized and used for these vectors. This coding sequence was expressed in E. coli from a PRecA-gene10L vector (Olins et al., 1988) and the EPSPS activity was compared with that from the native CP4 EPSPS gene. […] The N-terminus of the coding sequence was then mutagenized to place an SphI site (GCATGC) at the ATG to permit the construction of the CTP2-CP4 synthetic fusion for chloroplast import. This change had no apparent effect on the in vivo activity of CP4 EPSPS in E. coli as judged by complementation of the aroA mutant. A CTP-CP4 EPSPS fusion was constructed between the Arabidopsis thaliana EPSPS CTP (Klee et al., 1987) and the CP4 EPSPS coding sequences. The Arabidopsis CTP was engineered by site-directed mutagenesis to place a SphI restriction site at the CTP processing site. This mutagenesis replaced the Glu-Lys at this location with Cys-Met. The CTP2-CP4 EPSPS fusion was tested for import into chloroplasts isolated from Lactuca sativa using the methods described previously (della-Cioppa et al., 1986: 1987).

T1 sequence (Q9R4E4 whole entry S2A): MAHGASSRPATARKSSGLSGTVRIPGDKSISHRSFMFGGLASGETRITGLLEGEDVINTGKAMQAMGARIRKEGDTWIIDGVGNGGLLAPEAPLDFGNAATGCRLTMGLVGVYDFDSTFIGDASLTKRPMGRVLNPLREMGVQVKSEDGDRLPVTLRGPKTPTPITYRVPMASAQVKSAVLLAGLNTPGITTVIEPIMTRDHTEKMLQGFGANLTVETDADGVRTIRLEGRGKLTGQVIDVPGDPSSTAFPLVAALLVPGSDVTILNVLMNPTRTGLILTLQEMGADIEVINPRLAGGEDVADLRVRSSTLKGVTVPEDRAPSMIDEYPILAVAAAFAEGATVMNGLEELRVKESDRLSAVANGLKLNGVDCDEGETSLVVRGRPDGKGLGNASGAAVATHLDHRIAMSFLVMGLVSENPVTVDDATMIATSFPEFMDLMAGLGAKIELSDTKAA

B1: LBAA: Class II EPSPS enzyme from Achromobacter sp. strain LBAA (SEQ ID NO:5); wild type gene expressed from pMON17201 (protein, listed as Agrobacterium sp.)
chain: MSHSASPKPATARRSEALTGEIRIPGDKSISHRSFMFGGLASGETRITGLLEGEDVINTGRAMQAMGAKIRKEGDVWIINGVGNGCLLQPEAALDFGNAGTGARLTMGLVGTYDMKTSFIGDASLSKRPMGRVLNPLREMGVQVEAADGDRMPLTLIGPKTANPITYRVPMASAQVKSAVLLAGLNTPGVTTVIEPVMTRDHTEKMLQGFGADLTVETDKDGVRHIRITGQGKLVGQTIDVPGDPSSTAFPLVAALLVEGSDVTIRNVLMNPTRTGLILTLQEMGADIEVLNARLAGGEDVADLRVRASKLKGVVVPPERAPSMIDEYPVLAIAASFAEGETVMDGLDELRVKESDRLAAVARGLEANGVDCTEGEMSLTVRGRPDGKGLGGGTVATHLDHRIAMSFLVMGLAAEKPVTVDDSNMIATSFPEFMDMMPGLGAKIELSIL
Turning to B1, the “signal in Western analysis with rabbit anti-EPSPS antibody” value in data set [1] was “no positive signal could be detected”. Moreover, in the data set on EPSPS enzymes, the Ki/Km is ~7.9 and the Michaelis-Menten constant (Km) – broadly, the substrate concentration at which the rate is half of its maximum – is 7.3 to 8 µM. Moreover, in the data set on LBAA EPSPS, the “appKm(PEP)” value came to 5.3 µM.

B2: CP4: Class II EPSPS enzyme from Agrobacterium sp. strain CP4 (SEQ ID NO:3) (protein, listed as Agrobacterium sp.)
chain: MSHGASSRPATARKSSGLSGTVRIPGDKSISHRSFMFGGLASGETRITGLLEGEDVINTGKAMQAMGARIRKEGDTWIIDGVGNGGLLAPEAPLDFGNAATGCRLTMGLVGVYDFDSTFIGDASLTKRPMGRVLNPLREMGVQVKSEDGDRLPVTLRGPKTPTPITYRVPMASAQVKSAVLLAGLNTPGITTVIEPIMTRDHTEKMLQGFGANLTVETDADGVRTIRLEGRGKLTGQVIDVPGDPSSTAFPLVAALLVPGSDVTILNVLMNPTRTGLILTLQEMGADIEVINPRLAGGEDVADLRVRSSTLKGVTVPEDRAPSMIDEYPILAVAAAFAEGATVMNGLEELRVKESDRLSAVANGLKLNGVDCDEGETSLVVRGRPDGKGLGNASGAAVATHLDHRIAMSFLVMGLVSENPVTVDDATMIATSFPEFMDLMAGLGAKIELSDTKAA
In the case of B2, in data set [1], the “signal in Western analysis with rabbit anti-EPSPS antibody” value is recorded as “no positive signal could be detected”. For the same molecule, in the data set with EPSPS enzymes, the Ki/Km is 227 and the Km stood at 12 µM. Besides, the “appKm for PEP” value with CP4 EPSPS (expressed in E. coli from a PRecA-gene10L vector) was 11.8 µM. For the same molecule, the Km with CP4 EPSPS (expressed in E. coli from the RecA promoter, read-out: apparent Km for PEP) stood at 11.8 µM.
